We go through one molecule from US20140255415A1 (Novartis, published 2014).

The target in experiment [1] is T1, rat LINGO-1 expressed on CHO-K1 cells (CHO-K1-rLINGO-1) (rat, UniProt A0A8I5ZPI2 34-614).
T1 construct: range 34-614; not shown: 2 amino acid residue linker
T1 sequence: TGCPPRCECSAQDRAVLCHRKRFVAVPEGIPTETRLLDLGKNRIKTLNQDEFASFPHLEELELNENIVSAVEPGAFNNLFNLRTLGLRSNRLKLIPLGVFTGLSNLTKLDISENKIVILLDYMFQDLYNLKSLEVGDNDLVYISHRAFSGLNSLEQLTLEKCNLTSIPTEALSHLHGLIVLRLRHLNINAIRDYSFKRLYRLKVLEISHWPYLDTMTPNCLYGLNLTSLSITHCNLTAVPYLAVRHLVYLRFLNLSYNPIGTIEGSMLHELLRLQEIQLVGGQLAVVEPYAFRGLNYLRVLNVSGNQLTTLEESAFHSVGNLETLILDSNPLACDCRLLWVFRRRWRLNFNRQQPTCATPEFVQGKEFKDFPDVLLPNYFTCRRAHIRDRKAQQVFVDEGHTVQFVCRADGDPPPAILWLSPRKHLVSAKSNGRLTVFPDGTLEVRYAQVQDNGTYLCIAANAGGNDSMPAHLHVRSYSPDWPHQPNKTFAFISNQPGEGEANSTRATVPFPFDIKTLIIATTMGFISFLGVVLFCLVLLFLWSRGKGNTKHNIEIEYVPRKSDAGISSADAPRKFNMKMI
The experiment is described as follows: apparent KD, FACS saturation binding on CHO-K1-rLINGO-1 cells, Fab format. On the procedure:
Cell based affinity of anti-LINGO-1 specific antibodies is determined by FACS saturation binding experiments. […] Otherwise the staining procedure is done identical to the FACS staining procedure described above.
In detail, CHO-K1-hLINGO-1, CHO-K1-cmLINGO-1 or CHO-K1-rLINGO-1 are detached from culture flasks by versene, washed with FACS buffer and resuspended in FACS buffer. Purified anti-LINGO-1 Fabs are serially diluted in FACS buffer and spread into round bottom 96-well microtiter plates (NUNC™, Wiesbaden, Germany). For each concentration, duplicate wells are incubated with 1.25×10⁴ cells for 30-60 min on ice in a total volume of 100 μl.

Experiment [2] has as its target T2, human LINGO-1-ΔLRR-Fc (Igleader-hsLINGO-1-ΔLRR-Fc) (human, UniProt Q96FE5 40-556).
T2 construct: Heterologous secretion signal left out; also called human LINGO-1 lacking the LRR domain
T2 sequence: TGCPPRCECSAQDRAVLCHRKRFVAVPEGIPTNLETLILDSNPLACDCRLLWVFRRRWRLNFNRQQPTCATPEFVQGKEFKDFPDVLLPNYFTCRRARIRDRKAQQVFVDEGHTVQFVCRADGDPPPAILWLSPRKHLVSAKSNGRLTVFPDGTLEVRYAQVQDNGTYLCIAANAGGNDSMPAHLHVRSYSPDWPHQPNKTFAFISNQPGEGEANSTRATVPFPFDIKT
The experiment is described as follows: ELISA, Fc fusion captured via goat anti-human IgG Fc, Fab detected with AP-conjugated secondary and AttoPhos. A general note: In an ELISA, binding on a coated surface is turned into a signal by an enzyme label.

Experiment [3] concerns the target T3, human NgR-Fc fusion protein (R&D Systems) (human, UniProt Q9BZR6 27-447, limits assumed).
T3 construct: Commercial protein; also called captured human NgR-Fc; not shown: Fc part of the commercial fusion protein; not described
T3 sequence (looked up): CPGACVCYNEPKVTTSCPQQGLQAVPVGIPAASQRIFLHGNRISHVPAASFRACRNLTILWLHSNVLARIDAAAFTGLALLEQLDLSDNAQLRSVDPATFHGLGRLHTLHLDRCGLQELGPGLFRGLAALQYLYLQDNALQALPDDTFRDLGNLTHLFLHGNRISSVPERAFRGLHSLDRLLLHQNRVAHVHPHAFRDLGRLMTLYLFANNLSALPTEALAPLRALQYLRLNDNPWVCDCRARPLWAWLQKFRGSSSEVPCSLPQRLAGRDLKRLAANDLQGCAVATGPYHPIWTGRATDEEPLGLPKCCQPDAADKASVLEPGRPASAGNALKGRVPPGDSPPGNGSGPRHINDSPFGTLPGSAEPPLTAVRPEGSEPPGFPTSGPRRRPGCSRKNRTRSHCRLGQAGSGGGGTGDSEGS
The description is as above.

Experiment [4] deals with T4, human LINGO-1-Fc fusion protein (natleader-hsLINGO-1-Fc) (human, UniProt Q96FE5 42-556).
T4 construct: also called human recombinant LINGO-1-Fc; captured human LINGO-1-Fc; not shown: protein lette
T4 sequence: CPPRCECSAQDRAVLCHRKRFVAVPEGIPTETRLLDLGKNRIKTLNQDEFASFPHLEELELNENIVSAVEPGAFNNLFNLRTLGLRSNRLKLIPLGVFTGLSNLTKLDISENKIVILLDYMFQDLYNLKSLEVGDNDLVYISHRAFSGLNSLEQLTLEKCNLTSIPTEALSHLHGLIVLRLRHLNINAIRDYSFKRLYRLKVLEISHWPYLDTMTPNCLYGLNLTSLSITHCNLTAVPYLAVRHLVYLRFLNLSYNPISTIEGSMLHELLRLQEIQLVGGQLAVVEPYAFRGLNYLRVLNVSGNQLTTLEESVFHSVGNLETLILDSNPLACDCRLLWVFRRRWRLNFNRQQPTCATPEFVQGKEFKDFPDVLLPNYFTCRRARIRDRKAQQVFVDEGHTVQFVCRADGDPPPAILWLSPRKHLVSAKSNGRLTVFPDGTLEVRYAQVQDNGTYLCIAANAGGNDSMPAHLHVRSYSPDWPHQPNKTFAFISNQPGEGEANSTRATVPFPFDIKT
The experiment is described as above.

B1: anti-LINGO-1 Fab 4785 (Fab, V domains shown)
VH: QVQLQQSGPGLVKPSQTLSLTCAISGDSVSDNSAAWSWIRQSPGRGLEWLGLIYLRSKWDNDYAVSVKSRITINPDTSKNQFSLQLNSVTPEDTAVYYCARTGRADEFDVWGQGTLVTVSS
VL: DIVLTQPPSVSGAPGQRVTISCSGSSSNIGNNYVSWYQQLPGTAPKLLISRNSKRPSGVPDRFSGSKSGTSASLAITGLQSEDEADYYCSTYDTFSIVFGGGTKLTVLG
With B1, the Kd in experiment [1] turned out to be 0.26 nM. Also, the “relative fluorescence units (RFU)” value was found to be 8 RFU in experiment [2], 7 RFU in experiment [3] and 113 RFU in experiment [4].
